Publication PMC8495968 (2021)
Ends that are not written are not given here. * marks the point of attachment. FITC = O=C1OC2(c3ccc(O)cc3Oc3cc(O)ccc32)c2ccc(NC(=S)*)cc21; Ahx = NCCCCCC(=O)O

Molecular target: MCL-1 (Homo sapiens, UniProt Q07820)
Assay: fluorescence anisotropy direct titration

MCL-1, sequence (Q07820 whole entry): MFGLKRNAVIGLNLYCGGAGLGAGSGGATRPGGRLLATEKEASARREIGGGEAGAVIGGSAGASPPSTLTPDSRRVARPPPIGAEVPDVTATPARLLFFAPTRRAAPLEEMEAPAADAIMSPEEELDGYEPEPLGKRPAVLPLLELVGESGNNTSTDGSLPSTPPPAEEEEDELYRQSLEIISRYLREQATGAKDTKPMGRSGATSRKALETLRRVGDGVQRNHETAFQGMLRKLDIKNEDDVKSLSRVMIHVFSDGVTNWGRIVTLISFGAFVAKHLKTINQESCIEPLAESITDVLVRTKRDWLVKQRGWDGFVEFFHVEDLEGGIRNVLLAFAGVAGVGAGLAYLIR

A Kd of 204 nM was found for {FITC-Ahx}-TRSPLFIFMRR [FITC-Ahx-BIM75–85 75-85] in this work.
